The values below are quoted from earlier work in US12440573B2, “Antibody-conjugates for targeting of tumours expressing PTK7” (Synaffix B.V., priority 2022, dated 2025).

In data set [1] the test system is patient-derived, tumor xenograft preclinical models.
Data set [2] has as its system locally advanced/metastatic, PTK7-positive NSCLC, TNBC, and platinum-resistant OvCa. As to conditions: previously treated patients, administered every 2 or 3 weeks.

B1: PF-06647020: prior-art ADC: humanized anti-PTK7 antibody with auristatin microtubule inhibitor payload (Aur0101) (conjugate, chains of the INN, looked up)
VH: QVQLVQSGPEVKKPGASVKVSCKASGYTFTDYAVHWVRQAPGKRLEWIGVISTYNDYTYNNQDFKGRVTMTRDTSASTAYMELSRLRSEDTAVYYCARGNSYFYALDYWGQGTSVTVSS
VL: EIVLTQSPATLSLSPGERATLSCRASESVDSYGKSFMHWYQQKPGQAPRLLIYRASNLESGIPARFSGSGSGTDFTLTISSLEPEDFAVYYCQQSNEDPWTFGGGTKLEIK
modifications: Aur0101 auristatin payload
Turning to B1, the tumor regression entry in data set [1] is listed as “prolonged tumor regression”. In data set [2], the clinical activity result is “preliminary clinical activity” and the safety profile result is given as “tolerable safety profile”.
